In publication PMC8954747 (Viruses, 2022):

T1: human Scribble (SCRIB) PDZ2 domain (residues 860-950) (human, UniProt Q14160 860-950)
T1 construct: also called PDZ2 WT
T1 sequence (looked up): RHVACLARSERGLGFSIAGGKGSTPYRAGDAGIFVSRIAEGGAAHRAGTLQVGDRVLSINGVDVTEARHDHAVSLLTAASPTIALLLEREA

T2: human Scribble (SCRIB) PDZ4 domain (residues 1099-1203) (human, UniProt Q14160 1099-1203)
T2 sequence (looked up): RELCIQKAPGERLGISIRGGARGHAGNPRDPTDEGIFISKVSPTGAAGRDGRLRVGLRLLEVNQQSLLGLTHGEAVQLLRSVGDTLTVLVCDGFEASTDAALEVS

T3: human Scribble (SCRIB) PDZ3 domain (residues 1002-1093) (human, UniProt Q14160 1002-1093)
T3 construct: also called wild-type SCRIB PDZ3
T3 sequence (looked up): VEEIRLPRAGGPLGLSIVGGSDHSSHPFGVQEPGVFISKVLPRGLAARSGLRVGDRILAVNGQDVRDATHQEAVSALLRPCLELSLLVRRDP


Legend:
Assay in all cases: ITC
Conditions in all cases: both partners purified
[1] = biological target: T1, human Scribble (SCRIB) PDZ2 domain …
[2] = biological target: T2, human Scribble (SCRIB) PDZ4 domain …
[3] = biological target: T4, human Scribble (SCRIB) PDZ1 domain (residues 725-815) (human, UniProt Q14160 725-815)
T4 construct: also called PDZ1 WT

[4] = biological target: T3, human Scribble (SCRIB) PDZ3 domain …

T4 sequence (Q14160 725-815): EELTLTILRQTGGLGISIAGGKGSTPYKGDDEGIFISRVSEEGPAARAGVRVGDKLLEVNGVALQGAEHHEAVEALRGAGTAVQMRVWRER

Binder	Kd [1]	stoichiometry N [1]	Kd [2]	stoichiometry N [2]	Kd [3]	stoichiometry N [3]	Kd [4]	stoichiometry N [4]
KMARTIESEV [NS1 ESEV PBM peptide KMARTIESEV (H5N1 A/Viet Nam/1194/2004), 10-mer]	18.7 µM	1 ± 0.03	12.2 µM	1 ± 0.1	21.4 µM	1.1 ± 0.1	13.1 µM	1.1 ± 0.1
KMARTIESKV [NS1 ESKV PBM peptide KMARTIESKV (H5N1 A/chicken/Hubei/327/2004), 10-mer]	9.5 µM	1.1			30 µM	1.2	12.1 µM	1.1
